The numbers were not newly measured in article PMC9360543, which cites them from elsewhere.

In data set [1] the target is GRP78 (Homo sapiens) (UniProt P11021).
The target of data set [2] is Integrin αvβ5 (Homo sapiens) (UniProt P06756). The experiment in a line: solid-phase ELISA-based binding assay.
Sequence of UniProt P06756 (P06756 31-992, chain 1 of 2): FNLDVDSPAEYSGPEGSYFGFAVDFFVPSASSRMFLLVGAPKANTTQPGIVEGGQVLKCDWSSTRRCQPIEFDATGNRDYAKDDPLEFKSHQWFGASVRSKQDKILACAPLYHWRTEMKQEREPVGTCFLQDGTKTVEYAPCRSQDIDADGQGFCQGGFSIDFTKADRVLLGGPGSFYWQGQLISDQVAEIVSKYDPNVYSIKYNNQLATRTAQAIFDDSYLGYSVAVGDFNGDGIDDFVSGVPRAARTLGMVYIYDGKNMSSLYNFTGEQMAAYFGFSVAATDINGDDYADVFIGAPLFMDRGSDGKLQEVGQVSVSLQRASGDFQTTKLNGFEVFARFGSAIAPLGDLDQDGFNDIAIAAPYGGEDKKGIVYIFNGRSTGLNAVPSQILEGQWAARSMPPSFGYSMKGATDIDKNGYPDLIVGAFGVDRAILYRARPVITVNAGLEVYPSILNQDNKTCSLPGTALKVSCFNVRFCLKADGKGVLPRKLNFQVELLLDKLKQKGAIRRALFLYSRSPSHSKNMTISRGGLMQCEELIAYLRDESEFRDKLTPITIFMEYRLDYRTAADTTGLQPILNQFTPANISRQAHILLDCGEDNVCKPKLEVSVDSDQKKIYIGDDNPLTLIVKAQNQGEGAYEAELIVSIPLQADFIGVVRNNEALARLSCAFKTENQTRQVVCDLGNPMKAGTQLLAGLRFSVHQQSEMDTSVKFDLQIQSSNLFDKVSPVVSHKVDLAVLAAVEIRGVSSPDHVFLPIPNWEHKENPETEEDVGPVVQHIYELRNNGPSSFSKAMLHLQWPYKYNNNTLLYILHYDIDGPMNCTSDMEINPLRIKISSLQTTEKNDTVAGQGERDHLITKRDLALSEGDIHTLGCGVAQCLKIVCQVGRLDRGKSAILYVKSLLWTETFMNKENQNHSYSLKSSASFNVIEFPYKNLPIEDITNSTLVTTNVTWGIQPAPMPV
Sequence of UniProt P06756 (P18084 24-719, chain 2 of 2, further chain): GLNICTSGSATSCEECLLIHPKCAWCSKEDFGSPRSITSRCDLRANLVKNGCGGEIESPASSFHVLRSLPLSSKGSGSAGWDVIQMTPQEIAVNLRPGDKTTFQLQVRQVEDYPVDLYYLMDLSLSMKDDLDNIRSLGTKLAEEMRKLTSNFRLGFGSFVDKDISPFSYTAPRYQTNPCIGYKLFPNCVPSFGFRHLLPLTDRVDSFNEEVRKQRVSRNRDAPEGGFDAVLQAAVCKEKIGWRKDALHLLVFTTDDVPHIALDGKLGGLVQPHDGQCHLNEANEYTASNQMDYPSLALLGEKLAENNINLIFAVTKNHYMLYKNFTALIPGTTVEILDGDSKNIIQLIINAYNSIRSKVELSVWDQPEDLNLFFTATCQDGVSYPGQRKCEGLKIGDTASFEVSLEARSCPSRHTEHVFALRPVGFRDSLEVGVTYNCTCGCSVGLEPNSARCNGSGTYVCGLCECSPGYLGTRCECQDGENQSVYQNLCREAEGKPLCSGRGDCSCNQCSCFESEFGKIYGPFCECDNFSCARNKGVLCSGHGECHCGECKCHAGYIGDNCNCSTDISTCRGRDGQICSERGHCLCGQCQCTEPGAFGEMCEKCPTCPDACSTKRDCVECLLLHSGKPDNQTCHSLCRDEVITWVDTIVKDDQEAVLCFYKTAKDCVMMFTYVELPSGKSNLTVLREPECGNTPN

Sequence of UniProt P11021 (P11021 19-654): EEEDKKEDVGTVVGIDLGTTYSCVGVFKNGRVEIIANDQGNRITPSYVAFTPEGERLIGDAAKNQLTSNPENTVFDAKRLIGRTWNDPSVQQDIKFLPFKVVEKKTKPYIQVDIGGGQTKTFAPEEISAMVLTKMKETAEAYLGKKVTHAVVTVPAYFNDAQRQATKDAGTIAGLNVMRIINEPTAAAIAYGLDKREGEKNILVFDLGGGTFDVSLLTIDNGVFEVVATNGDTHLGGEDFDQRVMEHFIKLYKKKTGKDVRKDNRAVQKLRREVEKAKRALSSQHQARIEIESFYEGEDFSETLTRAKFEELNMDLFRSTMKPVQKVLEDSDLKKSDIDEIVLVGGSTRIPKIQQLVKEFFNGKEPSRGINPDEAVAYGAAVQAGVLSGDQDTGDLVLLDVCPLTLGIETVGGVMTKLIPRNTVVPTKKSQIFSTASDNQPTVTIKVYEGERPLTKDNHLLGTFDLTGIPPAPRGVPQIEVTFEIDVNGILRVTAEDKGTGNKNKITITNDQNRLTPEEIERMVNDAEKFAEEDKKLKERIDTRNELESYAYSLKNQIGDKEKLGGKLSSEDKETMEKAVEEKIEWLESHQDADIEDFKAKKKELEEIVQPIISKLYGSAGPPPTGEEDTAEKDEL

Consider Isthmin-1 (from UniProt B1AKI9), for which the values for the Kd in data set [1] and in data set [2] were 0.00858 µM and 40 µM, respectively.
